Assay results as given in US20250250593A1, “METHOD FOR PREPARING ALPHA-BRANCHED BETA'-HYDROXY CARBONYL COMPOUNDS BY ENZYMATIC-CATALYZED REDUCTIVE ALDOL REACTION” (Max-Planck-Gesellschaft zur Förderung der Wissenschaften …, priority 2022, published 2025).
Where “and” joins values, the source holds several entries; their conditions need not be identical. Equal entries are not always repeated.

Columns and labels:
[1] = target: T1, Kitasatospora setae crotonyl-CoA carboxylase/reductase (KsCcr), wild type (WT), SEQ ID NO: 1 (Kitasatospora setae, UniProt E4N096); assay type: biochemical; details: apparent turnover rate with formaldehyde as electrophile; 100 mM K2HPO4 pH 8.0, 30 °C; mean ± standard error
T1 construct: gene provided by JGI
T1 sequence (E4N096 1-445): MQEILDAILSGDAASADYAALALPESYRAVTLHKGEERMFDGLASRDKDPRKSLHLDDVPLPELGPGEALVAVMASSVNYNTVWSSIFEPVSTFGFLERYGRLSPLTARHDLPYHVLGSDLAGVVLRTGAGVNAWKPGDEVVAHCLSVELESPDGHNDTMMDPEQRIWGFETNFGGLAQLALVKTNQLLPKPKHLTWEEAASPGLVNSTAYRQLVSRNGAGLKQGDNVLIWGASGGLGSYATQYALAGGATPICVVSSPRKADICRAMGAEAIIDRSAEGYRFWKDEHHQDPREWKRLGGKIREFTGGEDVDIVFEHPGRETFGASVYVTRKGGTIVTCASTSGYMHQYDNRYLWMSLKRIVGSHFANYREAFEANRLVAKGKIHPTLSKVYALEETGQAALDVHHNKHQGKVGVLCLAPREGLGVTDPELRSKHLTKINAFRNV
Method: His-tagged KsCcr and its variants were expressed in E. coli BL21 (DE3). Cells in terrific broth were grown at 37° C. to an OD600=0.8-1.0 upon which expression for 12-16 h at 23° C. was induced by the addition of 500 μM IPTG (Isopropyl-D-β-thiogalactopyranoside). Cells were harvested for 15 min at 7500× g at 4° C. then resuspended in 2 mL of buffer A (50 mM Tris, 500 mM NaCl, 1 M L-Proline, pH=7.5) per gram of pellet. The suspension was treated with […] of DNAse I, 5 mM MgCl2, 10 μg/ml of lysozyme and incubated on ice for 20 min upon which cells were lysed using a sonicator. The lysate was clarified at 45000× g at 4° C. for 40 min and then loaded onto a pre-equilibrated 1 mL HisTrap FF column and washed with 15% buffer B (50 mM Tris, 500 mM NaCl, 1 M L-Proline, 500 mM imidazole, pH=7.5) for 20-30 column volumes until the UV 280 nm reached the baseline level. […]
Formaldehyde stock solution concentration was determined by following the formation of phenylhydrazone at 368 nm (εPhenylhydrazone,368 nm=6.1 mM^−1 cm^−1). […]
For reactions in which the full conversion to the aldol product was achieved assays were performed on a Cary-60 UV/Vis spectrophotometer (Agilent) at 30° C. using quartz cuvettes (1 mm, 3 mm or 10 mm path length; Hellma). […] Kinetic parameters for one substrate were determined by varying its concentration while the others were kept constant at 10 times their KM value.

CcCcrPAG = experiment: Substrate promiscuity screen: enoyl-CoAs with aldehydes, LC-MS; assay type: biochemical, Caulobacter crescentus; details: six enoyl-CoAs with formaldehyde, acetaldehyde, propionaldehyde, benzaldehyde; with Acx4 and catalase
Excerpt: According to phylogenetic and structural analysis, KsCcr belongs to the ECR-1 subfamily of enzymes that are mainly restricted to short-chain enoyl-CoAs. To increase the substrate scope of reductive aldol reactions, the inventors sought to use a more promiscuous enzyme. To that end, a triple variant of Caulobacter crescentus crotonyl-CoA carboxylase/reductase (CcCcrC146P/1169A/F373G, here CcCcrPAG) was employed that had been engineered to accept a variety of enoyl-CoAs, including short- and long-chain, branched, aromatic, bulky and halogenated analogs. Six different enoyl-CoA substrates (FIG. 4) were synthesized and tested in combination with four different aldehydes (formaldehyde, acetaldehyde, propionaldehyde, benzaldehyde) and by LC-MS.
Assays were performed in 100 mM K2HPO4 pH=8.0 at 30° C. and 10 μL samples were taken at different time points and quenched with 1 μL of 50% formic acid. The samples were spinned at 17000 g for 10 min at 4° C. to precipitate the protein and then analyzed by LC-MS.
Determination of CoA esters was performed using a HRES-LC-MS. […]

[2] = tested on: crotonyl-CoA carboxylase/reductase obtained from Caulobacter crescentus (CcCcr); experiment: First empirical data on reductive aldol reaction by CcCcr; assay type: biochemical

`C/C=C/C(=O)SCCNC(=O)CCNC(=O)[C@H](O)C(C)(C)COP(=O)(O)OP(=O)(O)OC[C@H]1O[C@@H](n2cnc3c(N)ncnc32)[C@H](O)[C@@H]1OP(=O)(O)O` [Crotonyl-CoA, crotonyl-CoA] was tested, and the Kcat [1] was 30 s⁻¹ and 30 ± 1 s⁻¹.

B1: CcCcrPAG: triple variant of Caulobacter crescentus crotonyl-CoA carboxylase/reductase engineered to accept a variety of enoyl-CoAs, SEQ ID NO: 29 (protein)
chain: MTIQTLETTALKDLYEIGEIPPAFHVPKTMYAWSIRKERHGKPTQAMQVEVVPTWEIGEDEVLVLVMAAGVNYNGVWAALGEPISPLDGHKQPFHIAGSDASGIVWKVGAKVKRWKLGDEVVIHPNQDDGDDEECNGGDPMFSSSQRAWGYETPDGSFAQFCRVQSRQLLPRPKHLTWEESACYTLTLATAYRMLFGHKPHELKPGQNVLVWGASGGLGVFATQLAAVAGANAIGVVSSEDKREFVLSMGAKAVLNRGEFNCWGQLPKVNGPEFNDYMKESRKFGKAIWQITGNKDVDMVFEHPGEQTFPVSVFLVKRGGMVVICAGTTGFNLTMDARFLWMRQKRVQGSHGANLMQASAANQLVIDRRVDPCLSEVFPWDQIPAAHEKMLANQHLPGNMAVLVCAQRPGLRTFEEVQELSGAP
modifications: CcCcr C125P/I148A/F352G
B1 was tested, and the “conversion of enoyl-CoAs to aldol products” value (CcCcrPAG) was “catalyzed conversion of all the tested enoyl-CoAs”.

B2: CcCcr: wild type crotonyl-CoA carboxylase/reductase obtained from Caulobacter crescentus, SEQ ID NO: 2 (protein)
chain: MTIQTLETTALKDLYEIGEIPPAFHVPKTMYAWSIRKERHGKPTQAMQVEVVPTWEIGEDEVLVLVMAAGVNYNGVWAALGEPISPLDGHKQPFHIAGSDASGIVWKVGAKVKRWKLGDEVVIHCNQDDGDDEECNGGDPMFSSSQRIWGYETPDGSFAQFCRVQSRQLLPRPKHLTWEESACYTLTLATAYRMLFGHKPHELKPGQNVLVWGASGGLGVFATQLAAVAGANAIGVVSSEDKREFVLSMGAKAVLNRGEFNCWGQLPKVNGPEFNDYMKESRKFGKAIWQITGNKDVDMVFEHPGEQTFPVSVFLVKRGGMVVICAGTTGFNLTMDARFLWMRQKRVQGSHFANLMQASAANQLVIDRRVDPCLSEVFPWDQIPAAHEKMLANQHLPGNMAVLVCAQRPGLRTFEEVQELSGAP
modifications: Caulobacter crescentus CcCCR crotonyl-CoA carboxylase/reductase
B2 was tested, and the “ability to catalyze a reductive aldol reaction” value [2] was “able to catalyze a reductive aldol reaction”.
